Data reported in patent publication US20210388087A1 (Chugai, published 2021).
Positions count from the first letter of the chain named. Values belong to the binder of their own block, whether it stands above or below them.

Target: T1, CD3 epsilon homodimer protein (UniProt P07766 23-126)
T1 construct: also called CD3 (CD3 epsilon)
Test: SPR, antibody over immobilised CD3e homodimer;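 also: SPR at 25 °C with CD3 epsilon homodimer amine-coupled to a CM4 sensor chip and antibody flowed over as analyte in HBS-EP+ running buffer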
Procedure: An appropriate amount of CD3 epsilon homodimer protein was immobilized onto Sensor chip CM4 (GE Healthcare Japan Corp.) by the amine coupling method. Then, the antibody having an appropriate concentration was injected thereto as an analyte and allowed to interact with the CD3 epsilon homodimer protein on the sensor chip. Then, the sensor chip was regenerated by the injection of 10 mmol/L glycine-HCl (pH 1.5). The assay was conducted at 25 degrees C., and HBS-EP+(GE Healthcare Japan Corp.) was used as a running buffer. […] Each parameter was calculated using Biacore T200 Evaluation Software (GE Healthcare Japan Corp.).

T1 sequence (P07766 23-126): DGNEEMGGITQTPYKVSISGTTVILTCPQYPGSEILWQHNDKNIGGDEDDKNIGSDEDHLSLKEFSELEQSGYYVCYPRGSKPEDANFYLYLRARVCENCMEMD

B1: CE115HA000/GLS3000 K50T (antibody, IgG1, name in Kabat numbering, V domains shown)
VH: QVQLVESGGGVVQPGRSLRLSCAASGFTFSNAWMHWVRQAPGKGLEWVAQIKAKSNNYATYYAESVKGRFTISRDDSKNSLYLQMNSLKTEDTAVYYCRYVHYGAYYGVDAWGQGTTVTVSS
VL: DIVMTQSPLSLPVTPGEPASISCRSSQSLVHSNRNTYLHWYQQKPGQAPRLLIYTVSNRFSGVPDRFSGSGSGTDFTLKISRVEAEDVGVYYCGQGTQVPYTFGQGTKLEIK
notes: one-arm IgG1
- KD ratio to GLS3000: 25.1

B2: CE115HA000/GLS3000 N28H (antibody, IgG1, name in Kabat numbering, V domains shown)
VH: B1 VH
VL: B1 VL with N33H, T55K
notes: one-arm IgG1
- KD ratio to GLS3000: 3

B3: CE115HA000/GLS3000 N28L (antibody, IgG1, name in Kabat numbering, V domains shown)
VH: B1 VH
VL: B1 VL with N33L, T55K
notes: one-arm IgG1
- KD ratio to GLS3000: 3.34

B5: CE115HA000/GLS3000 L27bM (antibody, IgG1, name in Kabat numbering, V domains shown)
VH: B1 VH
VL: B1 VL with L29M, T55K
notes: one-arm IgG1
- KD ratio to GLS3000: 1.31

B7: CE115HA000/GLS3000 L33E (antibody, IgG1, name in Kabat numbering, V domains shown)
VH: B1 VH
VL: B1 VL with L38E, T55K
notes: one-arm IgG1
- KD ratio to GLS3000: 0.83

B11: CE115HA000/GLS3000 N28G (antibody, IgG1, name in Kabat numbering, V domains shown)
VH: B1 VH
VL: B1 VL with N33G, T55K
notes: one-arm IgG1
- KD ratio to GLS3000: 2.41

B12: CE115HA000/GLS3000 L33V (antibody, IgG1, name in Kabat numbering, V domains shown)
VH: B1 VH
VL: B1 VL with L38V, T55K
notes: one-arm IgG1
- KD ratio to GLS3000: 1.26

B13: CE115HA000/GLS3000 L33F (antibody, IgG1, name in Kabat numbering, V domains shown)
VH: B1 VH
VL: B1 VL with L38F, T55K
notes: one-arm IgG1
- KD ratio to GLS3000: 0.65

B14: CE115HA000/GLS3000 L27bV (antibody, IgG1, name in Kabat numbering, V domains shown)
VH: B1 VH
VL: B1 VL with L29V, T55K
notes: one-arm IgG1
- KD ratio to GLS3000: 1.11

B15: CE115HA000/GLS3000 N28E (antibody, IgG1, name in Kabat numbering, V domains shown)
VH: B1 VH
VL: B1 VL with N33E, T55K
notes: one-arm IgG1
- KD ratio to GLS3000: 5.47

B19: CE115HA000/GLS3000 K74T (antibody, IgG1, name in Kabat numbering, V domains shown)
VH: B1 VH
VL: B1 VL with T55K, K79T
notes: one-arm IgG1
- KD ratio to GLS3000: 0.85

B21: CE115HA000/GLS3000 L27bS (antibody, IgG1, name in Kabat numbering, V domains shown)
VH: B1 VH
VL: B1 VL with L29S, T55K
notes: one-arm IgG1
- KD ratio to GLS3000: 0.9

B22: CE115HA000/GLS3000 L33A (antibody, IgG1, name in Kabat numbering, V domains shown)
VH: B1 VH
VL: B1 VL with L38A, T55K
notes: one-arm IgG1
- KD ratio to GLS3000: 0.82

B23: CE115HA000/GLS3000 N28P (antibody, IgG1, name in Kabat numbering, V domains shown)
VH: B1 VH
VL: B1 VL with N33P, T55K
notes: one-arm IgG1
- KD ratio to GLS3000: 4.18

B24: CE115HA000/GLS3000 L33D (antibody, IgG1, name in Kabat numbering, V domains shown)
VH: B1 VH
VL: B1 VL with L38D, T55K
notes: one-arm IgG1
- KD ratio to GLS3000: 37.5

B25: CE115HA000/GLS3000 L33I (antibody, IgG1, name in Kabat numbering, V domains shown)
VH: B1 VH
VL: B1 VL with L38I, T55K
notes: one-arm IgG1
- KD ratio to GLS3000: 0.86

B28: CE115HA000/GLS3000 K50Y (antibody, IgG1, name in Kabat numbering, V domains shown)
VH: B1 VH
VL: B1 VL with T55Y
notes: one-arm IgG1
- KD ratio to GLS3000: 195

B29: CE115HA000/GLS3000 L33M (antibody, IgG1, name in Kabat numbering, V domains shown)
VH: B1 VH
VL: B1 VL with L38M, T55K
notes: one-arm IgG1
- KD ratio to GLS3000: 0.9

B30: CE115HA000/GLS3000 L27bE (antibody, IgG1, name in Kabat numbering, V domains shown)
VH: B1 VH
VL: B1 VL with L29E, T55K
notes: one-arm IgG1
- KD ratio to GLS3000: 28.8

B31: CE115HA000/GLS3000 L27bF (antibody, IgG1, name in Kabat numbering, V domains shown)
VH: B1 VH
VL: B1 VL with L29F, T55K
notes: one-arm IgG1
- KD ratio to GLS3000: 2.67

B32: CE115HA000/GLS3000 K107E (antibody, IgG1, name in Kabat numbering, V domains shown)
VH: B1 VH
VL: B1 VL with T55K, K112E
notes: one-arm IgG1
- KD ratio to GLS3000: 0.95

B33: CE115HA000/GLS3000 N28M (antibody, IgG1, name in Kabat numbering, V domains shown)
VH: B1 VH
VL: B1 VL with N33M, T55K
notes: one-arm IgG1
- KD ratio to GLS3000: 3.29

B36: CE115HA000/GLS3000 L33P (antibody, IgG1, name in Kabat numbering, V domains shown)
VH: B1 VH
VL: B1 VL with L38P, T55K
notes: one-arm IgG1
- KD ratio to GLS3000: 32.9

B37: CE115HA000/GLS3000 L27bI (antibody, IgG1, name in Kabat numbering, V domains shown)
VH: B1 VH
VL: B1 VL with L29I, T55K
notes: one-arm IgG1
- KD ratio to GLS3000: 1.17

B38: CE115HA000/GLS3000 N28A (antibody, IgG1, name in Kabat numbering, V domains shown)
VH: B1 VH
VL: B1 VL with N33A, T55K
notes: one-arm IgG1
- KD ratio to GLS3000: 4.18

B39: CE115HA000/GLS3000 N28F (antibody, IgG1, name in Kabat numbering, V domains shown)
VH: B1 VH
VL: B1 VL with N33F, T55K
notes: one-arm IgG1
- KD ratio to GLS3000: 2.59

B40: CE115HA000/GLS3000 L27bY (antibody, IgG1, name in Kabat numbering, V domains shown)
VH: B1 VH
VL: B1 VL with L29Y, T55K
notes: one-arm IgG1
- KD ratio to GLS3000: 22.2

B42: CE115HA000/GLS3000 L27bD (antibody, IgG1, name in Kabat numbering, V domains shown)
VH: B1 VH
VL: B1 VL with L29D, T55K
notes: one-arm IgG1
- KD ratio to GLS3000: 25.1

B44: CE115HA000/GLS3000 L27bW (antibody, IgG1, name in Kabat numbering, V domains shown)
VH: B1 VH
VL: B1 VL with L29W, T55K
notes: one-arm IgG1
- KD ratio to GLS3000: 23.6

B45: CE115HA000/GLS3000 N28I (antibody, IgG1, name in Kabat numbering, V domains shown)
VH: B1 VH
VL: B1 VL with N33I, T55K
notes: one-arm IgG1
- KD ratio to GLS3000: 2.81

B46: CE115HA000/GLS3000 N28K (antibody, IgG1, name in Kabat numbering, V domains shown)
VH: B1 VH
VL: B1 VL with N33K, T55K
notes: one-arm IgG1
- KD ratio to GLS3000: 2.34

B47: CE115HA000/GLS3000 L27bP (antibody, IgG1, name in Kabat numbering, V domains shown)
VH: B1 VH
VL: B1 VL with L29P, T55K
notes: one-arm IgG1
- KD ratio to GLS3000: 0.96

More lines, now with the values ahead:

- KD ratio to GLS3000: 1.24
B4: CE115HA000/GLS3000 N30I (antibody, IgG1, name in Kabat numbering, V domains shown)
VH: B1 VH
VL: B1 VL with N35I, T55K
notes: one-arm IgG1

- KD ratio to GLS3000: 2.1
B6: CE115HA000/GLS3000 N30G (antibody, IgG1, name in Kabat numbering, V domains shown)
VH: B1 VH
VL: B1 VL with N35G, T55K
notes: one-arm IgG1

- KD ratio to GLS3000: 3.89
B8: CE115HA000/GLS3000 N28Y (antibody, IgG1, name in Kabat numbering, V domains shown)
VH: B1 VH
VL: B1 VL with N33Y, T55K
notes: one-arm IgG1

- KD ratio to GLS3000: 2.83
B9: CE115HA000/GLS3000 N30E (antibody, IgG1, name in Kabat numbering, V domains shown)
VH: B1 VH
VL: B1 VL with N35E, T55K
notes: one-arm IgG1

- KD ratio to GLS3000: 3.82
B10: CE115HA000/GLS3000 N30D (antibody, IgG1, name in Kabat numbering, V domains shown)
VH: B1 VH
VL: B1 VL with N35D, T55K
notes: one-arm IgG1

- KD ratio to GLS3000: 3.17
B16: CE115HA000/GLS3000 N28W (antibody, IgG1, name in Kabat numbering, V domains shown)
VH: B1 VH
VL: B1 VL with N33W, T55K
notes: one-arm IgG1

- KD ratio to GLS3000: 1.19
B17: CE115HA000/GLS3000 N30L (antibody, IgG1, name in Kabat numbering, V domains shown)
VH: B1 VH
VL: B1 VL with N35L, T55K
notes: one-arm IgG1

- KD ratio to GLS3000: 3.73
B18: CE115HA000/GLS3000 N28V (antibody, IgG1, name in Kabat numbering, V domains shown)
VH: B1 VH
VL: B1 VL with N33V, T55K
notes: one-arm IgG1

- KD ratio to GLS3000: 1.2
B20: CE115HA000/GLS3000 N30M (antibody, IgG1, name in Kabat numbering, V domains shown)
VH: B1 VH
VL: B1 VL with N35M, T55K
notes: one-arm IgG1

- KD ratio to GLS3000: 1.35
B26: CE115HA000/GLS3000 N30K (antibody, IgG1, name in Kabat numbering, V domains shown)
VH: B1 VH
VL: B1 VL with N35K, T55K
notes: one-arm IgG1

- KD ratio to GLS3000: 4.3
B27: CE115HA000/GLS3000 N28S (antibody, IgG1, name in Kabat numbering, V domains shown)
VH: B1 VH
VL: B1 VL with N33S, T55K
notes: one-arm IgG1

- KD ratio to GLS3000: 1.16
B34: CE115HA000/GLS3000 N30A (antibody, IgG1, name in Kabat numbering, V domains shown)
VH: B1 VH
VL: B1 VL with N35A, T55K
notes: one-arm IgG1

- KD ratio to GLS3000: 2.67
B35: CE115HA000/GLS3000 N28T (antibody, IgG1, name in Kabat numbering, V domains shown)
VH: B1 VH
VL: B1 VL with N33T, T55K
notes: one-arm IgG1

- KD ratio to GLS3000: 3.48
B41: CE115HA000/GLS3000 N28Q (antibody, IgG1, name in Kabat numbering, V domains shown)
VH: B1 VH
VL: B1 VL with N33Q, T55K
notes: one-arm IgG1

- KD ratio to GLS3000: 1.08
B43: CE115HA000/GLS3000 N30H (antibody, IgG1, name in Kabat numbering, V domains shown)
VH: B1 VH
VL: B1 VL with N35H, T55K
notes: one-arm IgG1
